Patent US20170369591

Tested on: topoisomerase I
Sequence (chain, as listed by the source): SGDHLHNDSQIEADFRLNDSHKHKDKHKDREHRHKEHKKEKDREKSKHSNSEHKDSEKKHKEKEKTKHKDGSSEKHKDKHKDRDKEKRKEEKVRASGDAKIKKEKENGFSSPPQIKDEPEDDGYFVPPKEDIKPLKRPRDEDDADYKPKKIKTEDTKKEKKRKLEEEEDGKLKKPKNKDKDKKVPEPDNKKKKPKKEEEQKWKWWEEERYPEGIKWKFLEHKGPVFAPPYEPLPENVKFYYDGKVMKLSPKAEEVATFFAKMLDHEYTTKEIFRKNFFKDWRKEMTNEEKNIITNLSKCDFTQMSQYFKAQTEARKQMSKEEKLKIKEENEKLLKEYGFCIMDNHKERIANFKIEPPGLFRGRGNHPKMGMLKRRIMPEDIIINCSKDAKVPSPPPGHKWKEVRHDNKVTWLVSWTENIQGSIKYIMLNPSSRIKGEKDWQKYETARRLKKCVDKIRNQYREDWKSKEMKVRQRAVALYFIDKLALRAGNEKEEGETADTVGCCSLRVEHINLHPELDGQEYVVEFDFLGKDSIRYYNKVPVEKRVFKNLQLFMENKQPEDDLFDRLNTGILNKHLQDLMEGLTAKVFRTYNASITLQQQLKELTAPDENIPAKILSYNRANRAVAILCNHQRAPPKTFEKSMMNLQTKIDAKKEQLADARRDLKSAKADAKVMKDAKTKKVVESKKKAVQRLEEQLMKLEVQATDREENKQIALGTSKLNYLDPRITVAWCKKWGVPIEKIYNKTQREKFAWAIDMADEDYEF

Substance: BRCA1-Flag/BARD1
- in vitro ubiquitination, immunoblot with anti-ubiquitin: showed ubiquitination of topo I by BRCA 1
